Data on 22 molecules can be found in patent publication US20260250737A1, “Engineered Luciferases and Luciferin Substrates” (Monod Bio, Inc., priority 2023, published 2026).

The test system of this assay is SmLux. The experiment in a line: Computationally generated LgLux variants expressed in E. coli, tested in lysates with SmLux and substrate 1c. The assay is classed as biochemical. The procedure: LgLux sequences were designed computationally, and their activity measured as depicted schematically in FIG. 45.
A library of the computationally generated LgLux variants were expressed in E. coli and tested in lysates. 20 uM of SmLux and 50 uM of substrate 1c was used for the screening.
LgLux_4039 sequence is as set forth in SEQ ID NO:2773. MBIO-5103 through MBIO-5124, MBIO-5261 through MBIO-5295, MBIO-5101, and MBIO-5102 (SEQ ID NO:2815-SEQ ID NO:2873, respectively) are computationally generated LgLux. The sequences and activity of these LgLux are shown below in Table 21.
MBIO-5358 and MBIO-5360 through MBIO-5381 (SEQ ID NO:2774-SEQ ID NO:2796, respectively) are computationally generated LgLux.

The mark [1] stands for this setting: 20 uM SmLux, 50 uM substrate 1c.
Setting [2] is: 50 uM substrate 1c, before SmLux peptide addition.
The mark [3] stands for this setting: Table 22, 20 uM SmLux, 50 uM substrate 1c.

B1: 5123 (protein)
chain: MTPEKIRENVENFYAALASGDLEKAKALFDPGTTITLWDGTTFTSLEEFLAWFEKQFKASKDAKREIKSLEIEGDTVKVLVRLTYTVNGKEKTVDLLQLLKFV
As to B1, under setting [1], the “Fold change upon SmLux peptide addition” value is listed as 1.09. Further, the “Baseline Signal (Normalized by expression)” value under setting [2] was 145.6.

B2: 5120 (protein)
chain: MTPEEIRENVLRFYEALASGDLETAKALFDPGTTITLWDGTTFTSLEEFLAWFEEQFDTSKDAKREILSLEIEGDVVRVLVRLTYVKDGEEKVVDLLQLLKWV
With B2, the “Fold change upon SmLux peptide addition” value under setting [1] was determined as 1.09. Moreover, under setting [2], the “Baseline Signal (Normalized by expression)” value is reported as 148.4.

B3: 5121 (protein)
chain: MTPEEIKENVKKFYEALASGDLETAKSLFDPGTTITLWDGTTFTSLEEFLAWFEKQFDASKDAKREIVSMEIKGNEVKVLVRLTYTKDGKEQTVDLLQLLKFV
As to B3, the “Fold change upon SmLux peptide addition” value under setting [1] was 1.29. In addition, under setting [2], the “Baseline Signal (Normalized by expression)” value is listed as 126.6.

B4: MBIO-5377: computationally generated LgLux, SEQ ID NO 2792 (protein)
chain: MTPEERIADVRAFYAALASGDLEAAKALFDPGVTITLWDGTTFTSVEEFRAWFEEQFKTSKDALREIESIEVDGDTVRVLVRLSFTRNGQKHTVDLLQQFKFI
Turning to B4, the “Fold change upon SmLux peptide addition” value under setting [3] is listed as 205.44. In addition, the “Baseline Signal (Normalized by expression)” value (Table 22, 50 uM substrate 1c) was 324.4.

B5: MBIO-5380: computationally generated LgLux, SEQ ID NO 2795 (protein)
chain: MTPEERIADVRAFYAALASGDLEAAKALFDPGVTITLWDGTTFTSVEEFRAWFEEQFKTSKDALREIESIEVDGDTVRVLVRLTFVRDGEEKVVDLLQLFKFV
Turning to B5, the “Fold change upon SmLux peptide addition” value under setting [3] stood at 157.38. Besides, the “Baseline Signal (Normalized by expression)” value (Table 22, 50 uM substrate 1c) worked out at 322.6.

B6: MBIO-5379: computationally generated LgLux, SEQ ID NO 2794 (protein)
chain: MTPEERIADVRAFYAALASGDLEAAKALFDPGVTITLWDGTTFTSVEEFRAWFEEQFKTSKDALREIESIEVDGDTVRVLVRLTFVRDGEEKVVDLLQLFKFI
As for B6, the “Fold change upon SmLux peptide addition” value under setting [3] turned out to be 176.25. Moreover, the “Baseline Signal (Normalized by expression)” value (Table 22, 50 uM substrate 1c) is 338.4.

B7: MBIO-5378: computationally generated LgLux, SEQ ID NO 2793 (protein)
chain: MTPEERIADVRAFYAALASGDLEAAKALFDPGVTITLWDGTTFTSVEEFRAWFEEQFKTSKDALREIESIEVDGDTVRVLVRLTFVRDGEEKVVDLLQQFKFI
Turning to B7, the “Fold change upon SmLux peptide addition” value under setting [3] is recorded as 85.83. For the same molecule, the “Baseline Signal (Normalized by expression)” value (Table 22, 50 uM substrate 1c) was 197.

B8: MBIO-5362: computationally generated LgLux, SEQ ID NO 2777 (protein)
chain: MTPEERIANVLAFYAALASGDLEAAAALFNPGVTITLWDGTTFTSVEEFRAWFEEQFKTSKDALREIESIEVDGDTVRVLVRLSFTRNGQKHTVDLLQLFKFV
For the molecule B8, under setting [3], the “Fold change upon SmLux peptide addition” value turned out to be 27.24. The “Baseline Signal (Normalized by expression)” value (Table 22, 50 uM substrate 1c) stood at 906.4.

B9: MBIO-5364: computationally generated LgLux, SEQ ID NO 2779 (protein)
chain: MTPEERIANVRAFYAALASGDLEAAKALFDPGVTITLWDGTTFTSVEEFRAWFEEQFKTSKDALREIESIEVDGDTVRVLVRLSFTRNGQKHTVDLLQLFKFV
Take B9: the “Fold change upon SmLux peptide addition” value under setting [3] worked out at 172.59. For the same molecule, the “Baseline Signal (Normalized by expression)” value (Table 22, 50 uM substrate 1c) is 376.8.

B10: MBIO-5363: computationally generated LgLux, SEQ ID NO 2778 (protein)
chain: MTPEERIANVLAFYAALASGDLEAAKALFNPGVTITLWDGTTFTSVEEFRAWFEEQFKTSKDALREIESIEVDGDTVRVLVRLSFTRNGQKHTVDLLQLFKFV
For the molecule B10, under setting [3], the “Fold change upon SmLux peptide addition” value amounted to 32.23. Moreover, the “Baseline Signal (Normalized by expression)” value (Table 22, 50 uM substrate 1c) came out at 339.2.

B11: 5124 (protein)
chain: MTPEEIIANVRAFYAALASGDLEAAKALFDPGTTITLWDGTTFTSLEEFLAWFEKQFDASKDAKREIVSIEVEGDTVRVLVRLTYTKDGKEQVVDLLQLLKFV
As for B11, the “Fold change upon SmLux peptide addition” value under setting [1] is reported as 1.07. For the same molecule, under setting [2], the “Baseline Signal (Normalized by expression)” value amounted to 187.6.

B12: MBIO-5365: computationally generated LgLux, SEQ ID NO 2780 (protein)
chain: MTPEELRQNLLRFYEALDSGDAVAAASLFNPGVTITLWDGTTFTSVEEFREWFETQFKTSKDALREIESLEVDGDTVRVTVRLTFTRDGEEQVVDLLQLFKFV
Consider B12, for which the “Fold change upon SmLux peptide addition” value under setting [3] is 359.8. The “Baseline Signal (Normalized by expression)” value (Table 22, 50 uM substrate 1c) was determined as 1452.6.

B13: MBIO-5368: computationally generated LgLux, SEQ ID NO 2783 (protein)
chain: MTPEELRQNLLRFYEALDSGDAVAAKSLFNSGVTITLWDGATFTSIEKFREWFDTQFKTSKDALREIESLEVDGDTVRVTVRLTFTSDGEEQVVDLLQLFKFV
As to B13, the “Fold change upon SmLux peptide addition” value under setting [3] is 4.95. Also, for the setting “Table 22, 50 uM substrate 1c”, the “Baseline Signal (Normalized by expression)” value is 366.8.

B14: MBIO-5366: computationally generated LgLux, SEQ ID NO 2781 (protein)
chain: MTPEELRQNLLRFYEALDSGDAVAAKSLFNPGVTITLWDGTTFTSVEEFREWFETQFKTSKDALREIESLEVDGDTVRVTVRLTFTRDGEEQVVDLLQLFKFV
Consider B14, for which, under setting [3], the “Fold change upon SmLux peptide addition” value stood at 32.61. Also, the “Baseline Signal (Normalized by expression)” value (Table 22, 50 uM substrate 1c) is given as 931.2.

B15: MBIO-5370: computationally generated LgLux, SEQ ID NO 2785 (protein)
chain: MTPEEIRQNLRRFYEALDSGDAEAAKSLFDPGVTITLWDGTTFTSVEEFREWFEEQFKTSKDALREIESLEVDGDTVRVTVRLTFTRDGEEKVVDLLQLFKFV
On to B15, for which, under setting [3], the “Fold change upon SmLux peptide addition” value came to 390.25. Also, for the setting “Table 22, 50 uM substrate 1c”, the “Baseline Signal (Normalized by expression)” value is given as 4567.

B16: MBIO-5369: computationally generated LgLux, SEQ ID NO 2784 (protein)
chain: MTPEEIRQNLLRFYEALDSGDAEAAKSLFNPGVTITLWDGTTFTSVEEFREWFEEQFKTSKDALREIESLEVDGDTVRVTVRLTFTRDGEEKVVDLLQLFKFV
For the molecule B16, the “Fold change upon SmLux peptide addition” value under setting [3] turned out to be 289.49. Moreover, the “Baseline Signal (Normalized by expression)” value (Table 22, 50 uM substrate 1c) is listed as 760.

B17: MBIO-5367: computationally generated LgLux, SEQ ID NO 2782 (protein)
chain: MTPEELRQNLLRFYEALDSGDAVAAASLFNSGVTITLWDGATFTSIEKFREWFDTQFKTSKDALREIESLEVDGDTVRVTVRLTFTSDGEEQVVDLLQLFKFV
In the case of B17, the “Fold change upon SmLux peptide addition” value under setting [3] turned out to be 6.08. Moreover, the “Baseline Signal (Normalized by expression)” value (Table 22, 50 uM substrate 1c) was 231.6.

B18: MBIO-5381: computationally generated LgLux, SEQ ID NO 2796 (protein)
chain: MTPEERIANVLAFYAALASGDLEAAKALFNPGVTITLWDGTTFTSVEEFRAWFEEQFKTSKDALREIESIEVDGDTVRVLVRLTFVRDGEEKVVDLLQLFKFV
B18: the “Fold change upon SmLux peptide addition” value under setting [3] is 22.28. For the same molecule, the “Baseline Signal (Normalized by expression)” value (Table 22, 50 uM substrate 1c) is reported as 158.6.

B19: MBIO-5360: computationally generated LgLux, SEQ ID NO 2775 (protein)
chain: MTPEELIANVLAFYAALASGDLVAAKALFNPGVTITLWDGTTFTSVEEFRAWFETQFKTSKDALREIESIEVDGDTVRVLVRLTFVRDGEEQVVDLLQLFKFV
Regarding B19, under setting [3], the “Fold change upon SmLux peptide addition” value worked out at 3.64. For the same molecule, the “Baseline Signal (Normalized by expression)” value (Table 22, 50 uM substrate 1c) was 150.2.

B20: MBIO-5361: computationally generated LgLux, SEQ ID NO 2776 (protein)
chain: MTPEELIANVLAFYAALASGDLVAAKALFNSGVTITLWDGATFTSIEKFRAWFDTQFKTSKDALREIESIEVDGDTVRVLVRLTFVSDGEEQVVDLLQLFKFV
In the case of B20, under setting [3], the “Fold change upon SmLux peptide addition” value is 5.17. Also, the “Baseline Signal (Normalized by expression)” value (Table 22, 50 uM substrate 1c) amounted to 156.4.

B21: MBIO-5358: computationally generated LgLux, SEQ ID NO 2774 (protein)
chain: MSEEQIRQDLLRFYEALDSGDAITAASLFNPGVTITLWDGTTFTSVEEFREWFESQFSTSKDALREISSLEVRGDTVEVTVRLSFTRNGQKHTVDLLQQFKFI
In the case of B21, the “Fold change upon SmLux peptide addition” value under setting [3] was 243.66. Besides, under “Table 22, 50 uM substrate 1c”, the “Baseline Signal (Normalized by expression)” value was 440.6.

B22: 5122 (protein)
chain: MTPEEIFANVKAFYAALASGDLAAAKALFDPGTTITLWDGTTFTSLDEFLAWFEKQFKASKDAKREILSMEVEGDTVRVLVRLTYVKDGKEEVVDLLQLIKWV
For the molecule B22, under setting [1], the “Fold change upon SmLux peptide addition” value came out at 1.04. Further, the “Baseline Signal (Normalized by expression)” value under setting [2] was 146.2.
